Results: article PMC8357241

System: PARP1
Experiment: fluorescence polarization
Conditions: EMSA: 20 mM Hepes pH 7.8, 150 mM NaCl, 2 mM MgCl2, 0.5 mM TCEP, 0.05 mg/ml BSA; TIRF same salts with 1 mg/ml BSA, 1 mg/ml beta-casein, 500 nM SYTOX Orange …

DNA dumbbell containing a SSB
Kd: 71 nM
